Assay [1] deals with Aβ42-CFP (human Aβ(1-42) fused to CFP) (human) (UniProt P05067). Description: FRET or BRET; acceptor photobleaching FRET (AB FRET) by confocal microscopy (Leica TCS SP5) of yeast cells co-expressing a CFP fusion (donor) and a YFP fusion (acceptor); acceptor bleached at 514 nm, 100% intensity; cells washed, air-dried on polylysine slides and mounted in …; three independent transformants, at least 100 cells each. (In general: Bioluminescence resonance energy transfer reports proximity on the nanometre scale.)

Assay [2] deals with IAPP-CFP (human IAPP fused in frame with cyan fluorescent protein) (human). The assay is described as above.
Sequence of IAPP-CFP (human IAPP fused in frame with cyan fluorescent protein) (human) (P10997 8-37): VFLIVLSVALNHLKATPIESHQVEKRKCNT

Turning to “IAPP-YFP (human IAPP fused in frame with yellow fluorescent protein) (domain or fragment)”, the FRET efficiency was 20% in assay [1] and 31% in assay [2].

The record behind these values is publication PMC10531723.
